Test results taken from patent US20250043302A1, “MUTATED HYDROXYPHENYLPYRUVATE DIOXYGENASE POLYPEPTIDE, AND CODING GENE AND USE THEREOF” (BEIJING DABEINONG BIOTECHNOLOGY CO., LTD., priority 2021, published 2025).

Assays:
Format in all cases: in vivo
[1] = test system: Arabidopsis thaliana T1 plants; test: Mesotrione tolerance of transgenic Arabidopsis thaliana T1 plants (spray, bleached leaf area grade, damage score); set-up: Scores: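 damage score 0-100 computed as Σ(N×S)/(T×M)×100 over grades 0-3 with higher meaning more damage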; conditions: Arabidopsis thaliana T1 plants; for Grade 0 (classification and statistics of the grade of pesticide damage; number of plants) / Grade 1 (classification and statistics of the grade of pesticide damage; number of plants) / Grade 2 (classification and statistics of the grade of pesticide damage; number of plants) / Grade 3 (classification and statistics of the grade of pesticide damage; number of plants): 16 plants
Summary of the method: (§1)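 T1 transformants selected by glufosinate; 18-day-old plants, with empty-vector and wild-type controls, sprayed with topramezone (25–200 g ai/ha), isoxaflutole (35–280 g ai/ha) or mesotrione (52.5–420 g ai/ha), water as 0×. Bleached leaf area fraction scored at 7 DAT as grades 0–3.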

[2] = test system: Arabidopsis thaliana T1 plants; test: Topramezone tolerance of transgenic Arabidopsis thaliana T1 plants (spray, bleached leaf area grade, damage score); conditions: 7 DAT, Table 4; for Classification and statistics of the grade of pesticide damage: Grade 0 / Classification and statistics of the grade of pesticide damage: Grade 1 / Classification and statistics of the grade of pesticide damage: Grade 2 / Classification and statistics of the grade of pesticide damage: Grade 3: number of plants; for Scores: pesticide damage score 0-100
Summary of the method: as §1

[3] = test system: Arabidopsis thaliana T1 plants; test: Isoxaflutole tolerance of transgenic Arabidopsis thaliana T1 plants (spray, bleached leaf area grade, damage score); set-up: Scores (pesticide damage): scale not given here; conditions: spray, Arabidopsis thaliana T1 plants; for Classification and statistics of the grade of pesticide damage: Grade 0 (number of plants) / Classification and statistics of the grade of pesticide damage: Grade 1 (number of plants) / Classification and statistics of the grade of pesticide damage: Grade 2 (number of plants) / Classification and statistics of the grade of pesticide damage: Grade 3 (number of plants): 16 plants
Summary of the method: as §1

[4] = isoxaflutole 35 g ai/ha (0.5x field concentration)
[5] = isoxaflutole 70 g ai/ha (1x field concentration)

Row | Molecule | Resistance evaluation ([1]; mesotrione 52.5 g ai/ha) | Scores ([1]; mesotrione 52.5 g ai/ha) | Grade 0 (classification and statistics of the grade of pesticide damage; number of plants) ([1]; mesotrione 52.5 g ai/ha) | Grade 1 (classification and statistics of the grade of pesticide damage; number of plants) ([1]; mesotrione 52.5 g ai/ha) | Grade 2 (classification and statistics of the grade of pesticide damage; number of plants) ([1]; mesotrione 52.5 g ai/ha) | Grade 3 (classification and statistics of the grade of pesticide damage; number of plants) ([1]; mesotrione 52.5 g ai/ha) | Resistance evaluation ([1]; mesotrione 105 g ai/ha) | Scores ([1]; mesotrione 105 g ai/ha) | Grade 0 (classification and statistics of the grade of pesticide damage; number of plants) ([1]; mesotrione 105 g ai/ha) | Grade 1 (classification and statistics of the grade of pesticide damage; number of plants) ([1]; mesotrione 105 g ai/ha) | Grade 2 (classification and statistics of the grade of pesticide damage; number of plants) ([1]; mesotrione 105 g ai/ha) | Grade 3 (classification and statistics of the grade of pesticide damage; number of plants) ([1]; mesotrione 105 g ai/ha) | Classification and statistics of the grade of pesticide damage: Grade 0 ([2]; topramezone 25 g ai/ha (1×)) | Classification and statistics of the grade of pesticide damage: Grade 1 ([2]; topramezone 25 g ai/ha (1×)) | Classification and statistics of the grade of pesticide damage: Grade 2 ([2]; topramezone 25 g ai/ha (1×)) | Classification and statistics of the grade of pesticide damage: Grade 3 ([2]; topramezone 25 g ai/ha (1×)) | Classification and statistics of the grade of pesticide damage: Grade 0 ([2]; topramezone 100 g ai/ha (4×)) | Classification and statistics of the grade of pesticide damage: Grade 1 ([2]; topramezone 100 g ai/ha (4×)) | Classification and statistics of the grade of pesticide damage: Grade 2 ([2]; topramezone 100 g ai/ha (4×)) | Classification and statistics of the grade of pesticide damage: Grade 3 ([2]; topramezone 100 g ai/ha (4×)) | other results
1 | OsHPPDm-F383W-02: nucleotide sequence encoding Oryza sativa HPPD with F383W; vector DBN11756 (nucleic acid, OsHPPDm-F383W-02 Nucleotide Sequence, vector DBN11756) DNA: ATGCCACCCACGCCAACACCAACGGCCACCACTGGTGCCGTCTCGGCCGCGGCAGCGGCCGGTGAGAATGCTGGTTTCAGGCTAGTCGGCCACCGCCGCTTCGTGAGGGCAAATCCAAGATCTGATCGGTTCCAAGCACTTGCTTTCCACCATGTTGAGCTGTGGTGCGCTGACGCCGCTTCAGCTGCCGGGAGGTTTGCTTTTGCTTTAGGGGCGCCGCTCGCCGCAAGGAGTGATCTTTCCACCGGAAATTCTGCTCATGCTTCTCTTCTACTTAGATCAGCAAGTGTTGCATTTCTGTTCACTGCACCTTATGGCGGAGACCATGGTGTCGGGGCCGATGCTGCAACAACAGCTAGCATACCATCATTTTCTCCCGGCGCCGCAAGAAGATTTGCAGCCGATCATGGCCTGGCAGTTCATGCTGTGGCATTGAGGGTCGCCGACGCGGCTGATGCGTTCCGCGCCAGCGTGGCTGCTGGAGCTAGGCCGGCGTTCCAGCCTGCTGACCTTGGGGGTGGATTTGGATTGGCGGAGGTTGAATTATATGGTGATGTTGTGCTCCGTTTTGTTTCCCATCCAGATGGTGCTGATGCTCCATTTCTACCTGGATTTGAAGGGGTGTCAAACCCCGGCGCGGTGGATTATGGACTGCGTCGATTTGATCACGTGGTAGGTAATGTTCCTGAGTTGGCTCCCGTGGCGGCCTACATTTCAGGCTTTACTGGCTTCCATGAATTTGCCGAGTTCACCGCGGAAGATGTGGGAACTGCTGAAAGTGGATTGAACTCTGTTGTCCTGGCGAACAATGCAGAGACTGTATTGCTCCCCTTGAATGAGCCTGTGCACGGCACCAAACGGCGATCTCAAATTCAGACATACCTCGACCACCACGGGGGCCCTGGTGTTCAGCATATTGCTCTAGCCAGCGACGACGTACTGGGAACACTGAGGGAGATGAGAGCCCGTTCCGCCATGGGTGGCTTTGAGTTTCTGGCCCCTCCGCCGCCAAACTACTACGACGGCGTCAGACGGCGGGCGGGTGACGTCTTGAGTGAGGAGCAGATCAATGAATGTCAAGAACTTGGGGTTCTTGTTGATAGAGATGATCAAGGAGTGCTCCTCCAAATATTCACAAAACCTGTTGGCGACCGCCCGACCTTCTGGCTTGAAATGATCCAAAGGATCGGCTGCATGGAGAAGGATGAATCGGGCCAGGAGTACCAGAAGGGTGGGTGTGGTGGCTTTGGGAAGGGCAACTTCAGCGAGCTGTTCAAGTCAATTGAAGAATATGAAAAATCATTGGAGGCAAAGCAAGCTCCGACGGTGCAGGGAAGCTGA | Non-resistant | 85 | 0 | 0 | 7 | 9 | Non-resistant | 100 | 0 | 0 | 0 | 16 | 0 | 3 | 9 | 4 | 0 | 0 | 0 | 16 | Scores ([2]; topramezone 25 g ai/ha (1×)): 69; Scores ([2]; topramezone 100 g ai/ha (4×)): 100; Resistance evaluation ([2]; topramezone 25 g ai/ha (1×)): non-resistant (non-resistant plants (scores 68-100)); Resistance evaluation ([2]; topramezone 100 g ai/ha (4×)): non-resistant (non-resistant plants (scores 68-100)); Resistance evaluation [3, 4]: Non-resistant; Scores (pesticide damage) [3, 4]: 94; Classification and statistics of the grade of pesticide damage: Grade 0 (number of plants) [3, 4]: 0; Classification and statistics of the grade of pesticide damage: Grade 1 (number of plants) [3, 4]: 0; Classification and statistics of the grade of pesticide damage: Grade 2 (number of plants) [3, 4]: 3; Classification and statistics of the grade of pesticide damage: Grade 3 (number of plants) [3, 4]: 13; Resistance evaluation [3, 5]: Non-resistant; Scores (pesticide damage) [3, 5]: 100; Classification and statistics of the grade of pesticide damage: Grade 0 (number of plants) [3, 5]: 0; Classification and statistics of the grade of pesticide damage: Grade 1 (number of plants) [3, 5]: 0; Classification and statistics of the grade of pesticide damage: Grade 2 (number of plants) [3, 5]: 0; Classification and statistics of the grade of pesticide damage: Grade 3 (number of plants) [3, 5]: 16
2 | SbHPPD-02: nucleotide sequence encoding wild-type Sorghum bicolor HPPD; vector DBN11758 (nucleic acid, SbHPPD-02 Nucleotide Sequence, vector DBN11758) DNA: ATGCCGCCCACTCCAACAACTGCTGCTGCGACGGGAGCAGCTGTCGCCGCTGCTTCTGCTGAGCAGGCTGCCTTCAGGCTCGTCGGGCACAGAAATTTTGTTCGTGTAAATCCAAGGAGTGATAGGTTCCACACCTTGGCTTTTCACCACGTGGAGTTGTGGTGTGCTGATGCAGCCTCGGCAGCGGGGCGCTTCTCGTTTGGTCTCGGTGCTCCGCTCGCCGCAAGATCTGATCTTAGCACTGGAAACACAGCGCATGCCTCCCTGCTCCTGCGCTCTGGCGCGCTGGCGTTCCTCTTCACGGCGCCATATGCTCACGGCGCCGACGCCGCCACCGCGTCATTGCCGTCTTTTAGTGCAGCCGAAGCAAGAAGATTTGCAGCAGACCACGGCCTCGCCGTAAGGGCCGTGGCCTTACGTGTCGCCGATGCCGAAGATGCTTTCCGCGCCTCTGTAGCAGCTGGAGCAAGGCCAGCATTTGAACCTGTTGAATTGGGGTTAGGATTCCGTCTTGCAGAAGTTGAGCTTTATGGCGACGTTGTTTTGAGATACGTTTCATATCCTGATGACGCTGACGCTAGCTTCTTGCCTGGTTTTGTGGGGGTGACATCACCTGGGGCAGCAGATTATGGTCTCAGGCGGTTTGATCATATTGTTGGAAACGTTCCTGAACTCGCGCCGGCGGCAGCCTACTTCGCCGGTTTCACTGGGTTTCATGAATTTGCTGAATTCACAGCCGAGGATGTCGGCACCACCGAGAGTGGACTGAACTCCATGGTGCTGGCCAACAATGCAGAGAATGTCCTTCTTCCCTTGAATGAACCAGTTCATGGAACAAAAAGGCGTTCCCAAATACAAACATACCTCGACCATCATGGTGGACCAGGCGTTCAGCATATGGCTCTCGCTAGTGACGATGTTCTACGAACCCTGCGAGAGATGCAGGCGCGGTCTGCAATGGGAGGATTTGAGTTCATGGCACCTCCTGCCCCTGAATATTATGATGGTGTTCGGAGAAGGGCAGGTGATGTGCTAACTGAAGCTCAAATCAAGGAGTGCCAGGAGCTTGGCGTGCTGGTCGATCGGGATGATCAAGGTGTGCTTCTGCAGATTTTTACTAAACCAGTGGGTGACCGCCCCACGCTGTTCCTAGAGATCATCCAGAGAATAGGGTGCATGGAGAAGGACGAAAAAGGACAAGAGTACCAGAAGGGAGGTTGTGGCGGCTTTGGAAAAGGGAACTTCTCCCAATTATTCAAGTCAATTGAAGACTATGAAAAGAGTTTGGAGGCTAAGCAAGCTGCAGCCGCCCAGGGCAGCTGA | Non-resistant | 100 | 0 | 0 | 0 | 16 | Non-resistant | 100 | 0 | 0 | 0 | 16 | 0 | 0 | 0 | 16 | 0 | 0 | 0 | 16 | Scores ([2]; topramezone 25 g ai/ha (1×)): 100; Scores ([2]; topramezone 100 g ai/ha (4×)): 100; Resistance evaluation ([2]; topramezone 25 g ai/ha (1×)): non-resistant (non-resistant plants (scores 68-100)); Resistance evaluation ([2]; topramezone 100 g ai/ha (4×)): non-resistant (non-resistant plants (scores 68-100)); Resistance evaluation [3, 4]: Non-resistant; Scores (pesticide damage) [3, 4]: 100; Classification and statistics of the grade of pesticide damage: Grade 0 (number of plants) [3, 4]: 0; Classification and statistics of the grade of pesticide damage: Grade 1 (number of plants) [3, 4]: 0; Classification and statistics of the grade of pesticide damage: Grade 2 (number of plants) [3, 4]: 0; Classification and statistics of the grade of pesticide damage: Grade 3 (number of plants) [3, 4]: 16; Resistance evaluation [3, 5]: Non-resistant; Scores (pesticide damage) [3, 5]: 100; Classification and statistics of the grade of pesticide damage: Grade 0 (number of plants) [3, 5]: 0; Classification and statistics of the grade of pesticide damage: Grade 1 (number of plants) [3, 5]: 0; Classification and statistics of the grade of pesticide damage: Grade 2 (number of plants) [3, 5]: 0; Classification and statistics of the grade of pesticide damage: Grade 3 (number of plants) [3, 5]: 16
